Data set [1] concerns MS2 coat protein. Briefly: apparent KD of MS2 coat protein, switch ON state; designed switch direction (-1 OFF switch, 1 ON switch): -1; higher = weaker reporter binding. The settings on record: FMN input: 0 or 200 uM; Eterna round: R93 (includes R88 designs). Summed up: (§1)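 Illumina sequencing clusters served as templates for on-chip transcription of the designed RNA switches. SNAP-549-labelled MS2 coat protein was then titrated in twofold steps from 0.7 or 1.5 nM to 3 µM, allowing 0.8–1.5 h per step at first and 10–20 min per step later. The buffer held 100 mM Tris-HCl pH 7.5, 80 mM KCl and 4 mM MgCl2, without or with constant ligand. Apparent KD is the median per design of normalised cluster binding-curve fits.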

For data set [2], the system named is MS2 coat protein. As to the kind of experiment: apparent KD of MS2 coat protein, switch OFF state (with FMN for OFF switches, without FMN for ON switches); designed switch direction (-1 OFF switch, 1 ON switch): -1; higher = weaker reporter binding. Conditions: FMN input: 0 or 200 uM; Eterna round: R93 (includes R88 designs). The essentials:
as §1

Turning to “AAGAAGUGAGGAUAUGUAUCAGUAUAGUUGCCUAUACUGAUGUAGAAGGCACAUGAGGAUCACCCAUGUCCUAA [Exclusion4-cac1]”, the “apparent KD of MS2 coat protein” value in the data set on MS2 coat protein [1] worked out at 21.7 nM; in the data set on MS2 coat protein [2], 30.8 nM.
As for “AAGAAUGCAGGAUAUACAUGAGGAUCACCCAUGUAAAAGAAAGAAAGGGAAAAGAAAAGUAGAAGGGCAAAGAA [Usermaatre-setepenamun Osorkon II]”, the “apparent KD of MS2 coat protein” value in the data set with MS2 coat protein [1] was determined as 35.8 nM; in the data set with MS2 coat protein [2], 36.5 nM.
For “AAGAAUGGAGGAUAUACAAGAAAGAAAGAAAAGAAAAGAAAACAUGAGGAUCACCCAUGUAGAAGGCCAUAGAA [EteRNA is fun!]” the same measures were 24.9 nM and 13.8 nM.
“AAGAAUGGAGGAUAUACAUAAAAGAAAGAAAAGAAAAGAAAACAUGAGGAUCACCCAUGUAGAAGGCCAUAGAA [EteRNA is fun!]”: the “apparent KD of MS2 coat protein” value in the data set with MS2 coat protein [1] worked out at 24.6 nM; in the data set on MS2 coat protein [2] it was 15.3 nM.
For “AAGACUACAGGAUAUACAUGAGGAUCACCCAUGUAACUGACAAGUAGAUGACGGAGAAGUAGAAGGGUAGUCAA [Ruby 36]” the same measures were 18.5 nM and 31.8 nM.
For “AAGACUACAGGAUAUACAUGAGGAUCACCCAUGUAACUGACGGAUAGAUGACGGAGAAGUAGAAGGGUAGUCAA [Ruby 38]”, the “apparent KD of MS2 coat protein” value with MS2 coat protein [1] came to 16.9 nM; with MS2 coat protein [2] it was 26.4 nM.
“AAGAGUAGAGGAUAUACGAAAAAAGAGUCGAAAGACUCGGGACAUGAGGAUCACCCAUGUAGAAGGCUACUCAA [Hyphema Seclusion Mod 62% 5]”: the “apparent KD of MS2 coat protein” value in the data set on MS2 coat protein [1] came to 22 nM; in the data set on MS2 coat protein [2], 110 nM.
In the case of “AAGAUCAGAGGAUAUACAGAAGGUGAUGAAAACAUCGCCAAACAUGAGGAUCACCCAUGUAGAAGGCUGAUCAA [JL EX2 2]”, the “apparent KD of MS2 coat protein” value with MS2 coat protein [1] came to 119 nM; in the data set with MS2 coat protein [2], 204 nM.
For the sequence “AAGCCACAUGAGGAUCACCCAUGUAAGGAUAUGAACGAAAAUAAAUAAAAAUAAAAGUUCAGAAGGUACAAAAA [66%, Wbt, 23]”, the “apparent KD of MS2 coat protein” value was 27.1 nM in the data set with MS2 coat protein [1] and 25.3 nM in the data set with MS2 coat protein [2].
For “AAGGAUCGAGGAUAUACAUAGAUACAGAUACAUGUAGACGUACAUGAGGAUCACCCAUGUAGAAGGCGAUCAUA [AJ 27]”, the “apparent KD of MS2 coat protein” value in the data set with MS2 coat protein [1] is 150 nM; with MS2 coat protein [2] it was 255 nM.
With “AAGGGACAUGAGGAUCACCCAUGUGAGGAUAUGCUAUGGAAAUAAAAAAUAAAACAUAGCAGAAGGCAUAAAAA [Mat - Exclusion 1 - Eli mod - D38]”, the “apparent KD of MS2 coat protein” value in the data set on MS2 coat protein [1] was found to be 69.3 nM; with MS2 coat protein [2], 60.5 nM.
Taken in the same sequence, the figures for “AAGUCGUUAGGAUAUAUAUGGAUAUACAUUUAUGUAGAACUACAUGAGGAUCACCCAUGUAGAAGGAACGAAUA [AJ 56]” were 24.3 nM and 27.9 nM.
With “AAGUUGCUAGGAUAUACUUGGGCAACAAAUGAACCAAUAUAACAUGAGGAUCACCCAUGUAGAAGGAGCAGAAA [JR_Exc002_Sub301]”, the “apparent KD of MS2 coat protein” value in the data set with MS2 coat protein [1] came to 35.2 nM; in the data set on MS2 coat protein [2], 63.5 nM.
On to “ACCAAUGGAGGAUAUACAUGAGGAUCACCCAUGUAUAACCUACAUAGGUGAAAAAAAUGUAGAAGGCCAUUGGA [EX3 233: Super Stable 33]”, for which the “apparent KD of MS2 coat protein” value with MS2 coat protein [1] amounted to 31.2 nM; in the data set with MS2 coat protein [2], 16.9 nM.
Consider “ACCGAUCGAGGAUAUACAUGAGGAUCACCCAUGUAACCCAGAAGAAAGGCCUCAGGAUGUAGAAGGCGACGCAA [JR_Exc003_Sub406]”, for which the “apparent KD of MS2 coat protein” value came out at 16.3 nM in the data set on MS2 coat protein [1] and 17.7 nM in the data set with MS2 coat protein [2].
As to “AGAAAACAUGAGGAUCACCCAUGUAAGGAUAUGCUGAAAAAACACUGGAAACAGUGCAGCAGAAGGUACAAAGA [Mat - Exclusion 1 - Eli mod - D99]”, the figures for the “apparent KD of MS2 coat protein” value in the data set with MS2 coat protein [1] and in the data set with MS2 coat protein [2] were 22.1 nM and 43.3 nM, respectively.
Consider “AGAAAACAUGAGGAUCACCCAUGUCAGGAUAUGAAAAAGAAAAGAAAAGAAAGAAGAAUCAGAAGGGACAAGAA [Senedj]”, for which the “apparent KD of MS2 coat protein” value turned out to be 38.2 nM with MS2 coat protein [1] and 40.3 nM in the data set with MS2 coat protein [2].
With “AGAAACGUAGGAUAUACAUGAGGAUCACCCAUGUAAAGAAAGAAGGGAGAAAGAAGAAGUAGAAGGACGAAGAA [JR_Exc003_Sub003]”, the “apparent KD of MS2 coat protein” value was found to be 19.2 nM in the data set with MS2 coat protein [1] and 59.9 nM in the data set on MS2 coat protein [2].
Regarding “AGAAAGCGAGGAUAUACUAAGAAACCUCAAAGAAAGAAGAAACAUGAGGAUCACCCAUGUAGAAGGCGCAAAGA [JR_Exc002_Sub002]”, the “apparent KD of MS2 coat protein” value was found to be 28.3 nM in the data set on MS2 coat protein [1] and 70.8 nM with MS2 coat protein [2].
For “AGAAAGUGAGGAUAUACGAAACCAGCCUAAAUGGCUGGAAAGUAGAAGGCACAUGAGGAUCACCCAUGUAAAGA [Ex4 sub 1]”, the results for the “apparent KD of MS2 coat protein” value in the data set on MS2 coat protein [1] and in the data set on MS2 coat protein [2] were 32.3 nM and 43.4 nM, respectively.
“AGAUAGUCAGGAUAUACGAACAAGAAAAAAGACGAGAACGGACAUGAGGAUCACCCAUGUAGAAGGGACAAGAA [Diamond 12]”: the “apparent KD of MS2 coat protein” value with MS2 coat protein [1] came out at 63 nM; in the data set on MS2 coat protein [2], 37 nM.
Take “AGCAAGUCAGGAUAUACGAACAAGACAAAAGACGUGAAGGGACAUGAGGAUCACCCAUGUAGAAGGGACAAGCA [74%, Web mod - With 4 less U's]”: the figures for the “apparent KD of MS2 coat protein” value in the data set on MS2 coat protein [1] and in the data set on MS2 coat protein [2] were 79.1 nM and 55.8 nM, respectively.
Taken in the same sequence, the figures for “AGCUAGAGAGGAUAUACAUAAAAAAAAAAAGUCUGAUCCCUACAUGAGGAUCACCCAUGUAGAAGGCUCUGGCA [Ex2 Design 157: Sub-opt 21]” were 38.1 nM and 38.5 nM.
Take “AGCUAGCAAGGAUAUGCGAACAUGUCAAAAGACGUGAAGGGACAUGAGGAUCACCCAUGUAGAAGGUGCUAGCA [JL 74% mod 9]”: the “apparent KD of MS2 coat protein” value was determined as 35.7 nM in the data set with MS2 coat protein [1] and 27.6 nM in the data set with MS2 coat protein [2].
Consider “AGCUAGUCAGGAUAUACGAAAAUGUCAGAGGCAGUAAGGGAACAUGAGGAUCACCCAUGUAGAAGGGACUAGCA [Diamond 40]”, for which the “apparent KD of MS2 coat protein” value with MS2 coat protein [1] amounted to 36.1 nM; in the data set with MS2 coat protein [2] it was 87.7 nM.
On to “AGCUAGUCAGGAUAUACGAACAAGACAAAAGACGUGAAGGGACAUGAGGAUCACCCAUGUAGAAGGGACUAGCA [74%, Web mod - With 2 less U's]”, for which the “apparent KD of MS2 coat protein” value in the data set on MS2 coat protein [1] is 26.2 nM; in the data set with MS2 coat protein [2], 71.3 nM.
With “AGCUAGUCAGGAUAUACGAACAGGUCAAAAGACCUGAAGGGACAUGAGGAUCACCCAUGUAGAAGGGACUAGCA [Mat - Exclusion 2 - JL mod - D28]”, the entries for the “apparent KD of MS2 coat protein” value with MS2 coat protein [1] and in the data set on MS2 coat protein [2] were 25.8 nM and 131 nM, respectively.
As for “AGCUAGUCAGGAUAUACGAACAUGUCAAAAGACGUGAAGAAACAUGAGGAUCACCCAUGUAGAAGGGACUAGCA [Mat - Exclusion 2 - JL-Eli mod - D50]”, the “apparent KD of MS2 coat protein” value stood at 16.7 nM in the data set on MS2 coat protein [1] and 12.4 nM in the data set on MS2 coat protein [2].
As to “AGCUAGUCAGGAUAUACGAACAUGUCAGAAGACGUAAGGGAACAUGAGGAUCACCCAUGUAGAAGGGACUAGCA [Diamond 48]”, the figures for the “apparent KD of MS2 coat protein” value in the data set on MS2 coat protein [1] and with MS2 coat protein [2] were 33.1 nM and 75 nM, respectively.
On to “AGCUAGUCAGGAUAUACGCAAACGAACGAAGCAGAGAAGGGACAUGAGGAUCACCCAUGUAGAAGGGACUAGCA [Diamond 31]”, for which the “apparent KD of MS2 coat protein” value with MS2 coat protein [1] worked out at 28.8 nM; in the data set on MS2 coat protein [2], 84.9 nM.
Consider “AGCUAGUGAGGAUAUGCGAACAUGUCAAAAGACGUGAAGGGACAUGAGGAUCACCCAUGUAGAAGGCACUAGCA [JL 74% mod 3]”, for which the “apparent KD of MS2 coat protein” value in the data set with MS2 coat protein [1] is 26.4 nM; in the data set on MS2 coat protein [2], 36.3 nM.
For “AGCUCGGUAGGAUAUACAAAAUGAUUGCGAAAGCAAUCAACACAUGAGGAUCACCCAUGUAGAAGGACCGAGCA [Mat - Exclusion 2 - JL-Eli mod - D42]”, the entries for the “apparent KD of MS2 coat protein” value with MS2 coat protein [1] and with MS2 coat protein [2] were 15.2 nM and 20 nM, respectively.
Turning to “AGGAAACAUGAGGAUCACCCAUGUAAGGAUAUGAACGAAAUAAAAUAAAAAUAAAAGUUCAGAAGGUACAAAAA [Mat - Exclusion 1 - Eli mod - D8]”, the “apparent KD of MS2 coat protein” value was determined as 31.8 nM in the data set on MS2 coat protein [1] and 39.3 nM with MS2 coat protein [2].
Taken in the same sequence, the figures for “AGGAAACAUGAGGAUCACCCAUGUCAGGAUAUUGAAAAGAAAAGAAAAGAAAGAAGAACAAGAAGGGACAAGAA [Mekh]” were 27.2 nM and 20.6 nM.
Consider “AGGAAACAUGAGGAUCACCCAUGUGAGGAUAUGAGAAAGAAAAGAAAAGAAAGAAGAAUCAGAAGGCACAAGAA [Raneb]”, for which the “apparent KD of MS2 coat protein” value turned out to be 42.8 nM with MS2 coat protein [1] and 46.6 nM with MS2 coat protein [2].
For “AGGGAGUCAGGAUAUCGGAAAAAAAAACAACGAAAAAAAGACGAGAAGGGACAUGAGGAUCACCCAUGUAAGAA [milkweed 16]” the same measures were 41.4 nM and 23.5 nM.
With “AGGUUGUCAGGAUAUGCGUGAAGAAUAAAACAAAUAACAACGCAGAAGGGACAUGAGGAUCACCCAUGUUAAGA [May 47]”, the “apparent KD of MS2 coat protein” value in the data set with MS2 coat protein [1] came to 39.8 nM; with MS2 coat protein [2], 48.3 nM.
Turning to “AGUACUACAGGAUAUACGAGGGAGGUCCACGUGAACCUUAUACAUGAGGAUCACCCAUGUAGAAGGGUAGUACA [Ex2 Design 108: Super Stable 8]”, the “apparent KD of MS2 coat protein” value worked out at 50.9 nM in the data set on MS2 coat protein [1] and 18.4 nM in the data set with MS2 coat protein [2].
As to “AGUCAGAGAGGAUAUACAUAGGAAAAAAAAGUAAGAUCCCUACAUGAGGAUCACCCAUGUAGAAGGCUCUGACA [Ex2 Design 140: Sub-opt 4]”, the results for the “apparent KD of MS2 coat protein” value with MS2 coat protein [1] and with MS2 coat protein [2] were 141 nM and 87.5 nM, respectively.
As to “AGUCAGAGAGGAUAUACAUGGAAAAAAAAAGUAAGAUCCCUACAUGAGGAUCACCCAUGUAGAAGGCUCUGACA [Ex2 Design 138: Sub-opt 2]”, the “apparent KD of MS2 coat protein” value in the data set with MS2 coat protein [1] stood at 27.5 nM; in the data set with MS2 coat protein [2] it was 13.2 nM.
